Where a chain is given by its changes, count along the chain named.
T1: hIL-13Rα1:hFc chimeric protein (R&D Systems, UK) (human, UniProt P78552 22-343)
T1 construct: extracellular domain; Bought; also called chimeric hIL-13Rα1:hFc; not shown: human Fc (hFc) of the bought chimera
T1 sequence (looked up): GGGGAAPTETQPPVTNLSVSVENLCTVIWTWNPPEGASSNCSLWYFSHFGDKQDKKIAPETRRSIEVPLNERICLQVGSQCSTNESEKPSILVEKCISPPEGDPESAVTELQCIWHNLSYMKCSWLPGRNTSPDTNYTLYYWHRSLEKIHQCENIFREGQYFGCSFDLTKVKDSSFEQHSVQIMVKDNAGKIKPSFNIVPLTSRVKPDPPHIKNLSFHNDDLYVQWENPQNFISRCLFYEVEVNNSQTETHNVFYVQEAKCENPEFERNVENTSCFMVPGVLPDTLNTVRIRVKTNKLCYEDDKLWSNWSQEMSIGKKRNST

T2: human IL-13Rα1 (human, UniProt P78552 22-427)
T2 sequence (looked up): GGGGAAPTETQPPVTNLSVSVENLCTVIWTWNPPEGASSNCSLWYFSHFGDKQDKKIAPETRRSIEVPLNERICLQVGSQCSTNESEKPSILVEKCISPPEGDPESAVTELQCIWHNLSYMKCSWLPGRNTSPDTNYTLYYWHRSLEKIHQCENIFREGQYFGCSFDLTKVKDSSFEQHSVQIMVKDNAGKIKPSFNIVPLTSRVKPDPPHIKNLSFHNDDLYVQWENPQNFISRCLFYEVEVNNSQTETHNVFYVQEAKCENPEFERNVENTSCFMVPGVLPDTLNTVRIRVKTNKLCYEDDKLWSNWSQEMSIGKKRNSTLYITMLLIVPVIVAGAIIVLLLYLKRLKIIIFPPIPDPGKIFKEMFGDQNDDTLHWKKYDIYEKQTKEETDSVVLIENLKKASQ

T3: Cynomolgus IL-13Rα1 expressed in transfected Ba/F3 cells (Cynomolgus, UniProt A0A7N9D0M5 20-425)
T3 construct: Stably transfected murine Ba/F3 cells
T3 sequence: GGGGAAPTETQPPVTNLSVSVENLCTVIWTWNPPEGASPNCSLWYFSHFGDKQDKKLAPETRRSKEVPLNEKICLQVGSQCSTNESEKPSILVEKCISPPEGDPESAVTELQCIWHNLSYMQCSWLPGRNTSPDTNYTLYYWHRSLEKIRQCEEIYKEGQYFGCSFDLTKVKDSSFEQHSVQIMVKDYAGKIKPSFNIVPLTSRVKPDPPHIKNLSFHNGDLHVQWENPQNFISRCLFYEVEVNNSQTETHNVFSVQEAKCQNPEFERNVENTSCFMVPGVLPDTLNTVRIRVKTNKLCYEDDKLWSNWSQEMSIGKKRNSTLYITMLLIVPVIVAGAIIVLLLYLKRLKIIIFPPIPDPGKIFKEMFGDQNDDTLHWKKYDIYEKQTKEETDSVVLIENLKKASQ

T4: extracellular domain of hIL-13Rα1 cleaved from hIL-13Rα1:hFc chimeric protein (human, UniProt P78552 22-343)
T4 construct: extracellular domain; also called Cleaved hIL-13Rα1 molecules (MW 40 kDa)
T4 sequence (looked up): T1 sequence (looked up)

B1: HuMab LC5002-005 (antibody, V domains shown)
VH: EVQVLDSGGGLVQPGGSLRLSCTASGFTFRLYTMSWVRQTPGRGLEWVSGISGSGLSTYFADSVKGRFTISRDNSKNTVYLQMNSLRAEDTAVYYCAKEGDWIYFDSWGQGTLVIVSS
VL: DIQMTQSPSSLSASVGDRVTITCRASQGISSWLAWYQQKPEKAPKSLIYAASSLQSGVPSRFSGSGSGTDFTLTISSLQPEDFATYYCQQYNSHPPTFGQGTKLEIK
notes: Only the variable domains are tied to this antibody; also called hu-MAB<h-IL-13Ralpha>LC.5002-005 (DSM ACC2711)
B2: HuMab LC5002-003 (antibody, V domains shown)
VH: EVQLLESGGDLIQPGGSLRLSCAASGFTFNIYAMNWVRQAPGKGLEWVSVISGRGITTYYADSVKGRFTISRDNSKNTLYLQMDSLRAEDTAVYYCAKGSSYWTDFDYWGQGTLVTVSS
VL: B1 VL with H94Y, P96W, L104V
notes: Human IgG1 kappa from a HuMab mouse hybridoma; Only the variable domains are tied to this antibody; also called LC50002-003; hu-MAB<h-IL-13Ralpha>LC.5002-003 (DSM ACC2710)
B3: HuMab LC5002-007 (antibody, human IgG1, V domains shown)
VH: QVQLVQSGAEVKKPGSSVKVSCKVSGGTFSSYAFSWVRQAPGQGLEWMGRIIPILGRTNYAQKFQGRVTITADKSTSTAYMEVSSLRSEDTAVYYCAREGETLDYFYYGMDVWGQGTTVTVSS
VL: EIVLTQSPGTLSLSPGERATLSCRASQSVSSSYLAWYQQKPGQAPRLLIYGASSRAIGIPDRFSGSGSGTDFTLTISRLEPEDFAVYYCQHYGSSLTFGGGTKVEIK
notes: Human IgG1 kappa from a HuMab mouse hybridoma; Only the variable domains are tied to this antibody; also called hu-MAB<h-IL-13R alpha>LC.5002-007 (DSM ACC2712)
B4: HuMab LC5002-002 (antibody, human IgG1, V domains shown)
VH: B2 VH with D10G, I12V, D84N, E89D, Y102S
VL: B1 VL with S31R, L33V, H94Y, P96W, L104V
notes: Human IgG1 kappa from a HuMab mouse hybridoma; Only the variable domains are tied to this antibody; also called hu-MAB<h-IL-13R alpha>LC.5002-002 (DSM ACC2709)

Target: T1, hIL-13Rα1:hFc chimeric protein (R&D …)
Assay: SPR Biacore 3000, HuMab captured by anti-hFcγ, hIL-13Rα1:hFc as analyte, 1:1 Langmuir model
Method: For interaction analysis a Biacore 3000 instrument was used. As running and reaction buffer, HBS-P (10 mM HEPES, 150 mM NaCl, 0.005% polysurfactant P, pH 7.4) at 25° C. was used. Capturing molecules (goat anti-human-IgG, Fcγ specifc) were amine-coupled at a concentration of 20 μg/ml at a flow rate of 5 μl/min for 20 minutes. HuMabs were injected at a concentration of 1 μg/ml at a flow rate of 10 μl/min for 1 minute. Blocking of the free goat anti human IgG, Fcγ was achieved by injecting human gamma globulin at 500 nM and 30 μl/min for 3 minutes. Analyte (hIL-13Rα1:hFc chimeric protein) was injected for two minutes at five concentrations between 5.63 nM and 90 nM and washed with HBS-P for five minutes. Regeneration of the surface was accomplished by two injections of 100 mM HCl for 1 min each. The chip, assay format and sequence of injections and kinetic data correspond to the description in table 2. Negative control data (e.g. buffer curves) were subtracted from sample curves for correction of system intrinsic baseline drift and for noise signal reduction. BiaEvaluation version 4.01 was used for analysis of sensorgrams and for calculation of affinity data. Kinetic data were calculated by fitting kinetic data to a 1:1 Langmuir binding model (Table 2).

Binder | Kd [nM] | koff [s⁻¹] | kon [M⁻¹ s⁻¹]
B1 | 0.018 | 3.12e-06 | 173000
B2 | < 0.0065 | 1.4e-06 | 210000
B3 | < 0.0084 | 1e-06 | 119000

Target: T2, human IL-13Rα1
Assay: cell-based or functional assay

Binder | IC50, IL-13-induced Stat-6 phosphorylation in BSMC [nM] | IC50, TF-1 proliferation in response to IL-13 [nM]
B1 | 1.18 | 0.39
B4 |  | 9.21
B2 | 5.98 | 3.07

Target: T3, Cynomolgus IL-13Rα1 expressed in …
Assay: FACS, transfected against parental Ba/F3 cells, 10 µg/ml
Method: The gene coding for IL-13Rα1 was isolated by RT-PCR from Cynomolgus tissue and transfected into in the murine cell line Ba/F3. In order to test whether the HuMabs crossreact with Cynomolgus IL-13Rα1, the stably transfected Ba/F3 cells as well as the parental Ba/F3 cells were incubated with 10 μg/ml of HuMab and control antibodies. As positive control, a polyclonal goat-anti hIL-13Rα1 (R&D Systems) was used. Negative controls included were: a human IgG1 myeloma protein (Nordic) and normal goat serum. Bound antibodies were detected by FACS analysis using an antibody directed against human IgG conjugated with FITC to detect HuMabs and an antibody directed against goat IgG conjugated with FITC to detect goat antibodies. Mean fluorescence intensities (MFI) were compared for the individual antibodies tested on the transfected Ba/F3 line versus the parental line.
All HuMabs of the invention were able to bind to Cynomolgus IL-13Rα1 expressed in transfected Ba/F3 cells. As expected from the close homology between human and Cynomolgus IL-13Rα1, the polyclonal AF152 antibody also bound to the Cynomolgus IL-13Rα1.

Binder | Fold Increase in MFI in the presence of Cyno_IL-13Rα1
B1 | 86.7
B4 | 79.8
B2 | 79
B3 | 14.9

Target: T4, extracellular domain of hIL-13Rα1 …
Assay: SPR Biacore 3000, C1 chip, HuMab captured by anti-hFcγ, cleaved hIL-13Rα1 as analyte, 1:1 Langmuir model
Method: For interaction analysis, a Biacore 3000 instrument was used. Running and reaction buffer was HBS-P (10 mM HEPES, 150 mM NaCl, 0.005% polysurfactant P, pH 7.4) at 25° C. Capturing antibody molecules (anti-hFcγ) were amine-coupled at a concentration of 100 μg/ml at a flow rate of 5 μl/min for 20 minutes. HuMabs were injected at concentrations of 10 μg/ml at a flow rate of 10 μl/min for 30 seconds. Cleaved hIL-13Rα1 molecules (MW 40 kDa) were injected for 200 seconds at seven concentrations between 1.56 nM and 100 nM and washed with HBS-P for five minutes. Regeneration of the surface was accomplished by two injections of 100 mM HCl for 1 min each at a flow rate of […]. The chip, assay format and sequence of injections and kinetic data correspond to the description in the following Table 3. Kinetic data were calculated by fitting kinetic data to a 1:1 Langmuir binding model.

Binder | Kd [nM] | koff [s⁻¹] | kon [M⁻¹ s⁻¹]
B1 | 0.22 | 0.0003 | 1.4e+06
B4 | 0.62 | 0.00065 | 1.1e+06
B2 | 0.39 | 0.00051 | 1.3e+06
B3 | 4.4 | 0.00083 | 190000
